Target: T1, MASP-2/C1-INH complex (fluid-phase, from human serum or plasma) (human, UniProt O00187 16-686; P05155 22-500)
T1 construct: also called C1-INH/MASP-2 complex
Assay: sandwich ELISA; mAb coated as capture, anti-C1-INH polyclonal detection, mannan-activated human serum
Procedure: The microtiter plate was blocked with 280 μl/well of 1% (w/v) BSA in TBS buffer for 1 hr at RT. (ii) Activated control serum was prepared by diluting pooled normal human serum (NHS) to 20% v/v in Tris-buffered saline (TBS; 10 mM Tris-C₁, 140 mM NaCl, pH 7.4) with 5 mM Ca²⁺. Mannan-agarose (100 uL, Sigma cat. M9917) was washed twice with five volumes of TBS/Ca²⁺, and resuspended to 100 μl in the same buffer. 500 μl of 20% serum was added to the 100 μl of mannan-agarose and incubated at room temperature (RT) with gentle shaking or rotation for 30 minutes. EDTA was then added to an end concentration of 10 mM and incubated for a further 2 minutes. The agarose was then spun down and the activated serum was aspirated off and stored at −20° C. (iii) Serial dilutions were prepared from the activated control serum over a range of 0.1% to 20% and the in TBS/Ca²⁺. The blocking buffer was discarded and 100 ul/well of samples or control sera was added to the plate and incubated for 1 hour at room temperature. […] (v) The plate was then washed 3× as described above. 100 μl/well anti-rabbit HRP (Sigma, 1:5000) was added and incubated for a further 45 min. (vi) The plate was then washed 3× as described above and 100 μl/well TMB substrate was added. When blue color developed, 50 μl/well 2N H₂SO₄ was added to stop the reaction and measured at the OD₄₅₀ nm.

T1 sequence (O00187 16-686, chain 1 of 2): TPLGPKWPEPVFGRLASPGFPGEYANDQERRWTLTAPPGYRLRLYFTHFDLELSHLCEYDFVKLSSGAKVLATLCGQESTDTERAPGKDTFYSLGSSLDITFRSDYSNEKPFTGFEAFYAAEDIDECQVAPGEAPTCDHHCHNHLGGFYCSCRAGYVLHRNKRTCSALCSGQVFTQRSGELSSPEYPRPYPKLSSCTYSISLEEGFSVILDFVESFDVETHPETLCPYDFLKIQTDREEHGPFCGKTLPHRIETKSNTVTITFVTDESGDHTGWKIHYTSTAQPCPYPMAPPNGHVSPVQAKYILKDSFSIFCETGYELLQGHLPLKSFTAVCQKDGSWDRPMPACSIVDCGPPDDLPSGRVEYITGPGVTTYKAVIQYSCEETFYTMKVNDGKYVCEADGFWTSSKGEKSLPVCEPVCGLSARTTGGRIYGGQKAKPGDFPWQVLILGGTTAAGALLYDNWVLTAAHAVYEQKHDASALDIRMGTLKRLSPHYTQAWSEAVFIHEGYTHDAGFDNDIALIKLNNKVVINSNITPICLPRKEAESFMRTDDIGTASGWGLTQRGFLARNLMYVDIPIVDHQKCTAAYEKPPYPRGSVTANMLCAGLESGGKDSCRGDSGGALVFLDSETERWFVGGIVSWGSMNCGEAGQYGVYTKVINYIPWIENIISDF
T1 sequence (P05155 22-500, chain 2 of 2): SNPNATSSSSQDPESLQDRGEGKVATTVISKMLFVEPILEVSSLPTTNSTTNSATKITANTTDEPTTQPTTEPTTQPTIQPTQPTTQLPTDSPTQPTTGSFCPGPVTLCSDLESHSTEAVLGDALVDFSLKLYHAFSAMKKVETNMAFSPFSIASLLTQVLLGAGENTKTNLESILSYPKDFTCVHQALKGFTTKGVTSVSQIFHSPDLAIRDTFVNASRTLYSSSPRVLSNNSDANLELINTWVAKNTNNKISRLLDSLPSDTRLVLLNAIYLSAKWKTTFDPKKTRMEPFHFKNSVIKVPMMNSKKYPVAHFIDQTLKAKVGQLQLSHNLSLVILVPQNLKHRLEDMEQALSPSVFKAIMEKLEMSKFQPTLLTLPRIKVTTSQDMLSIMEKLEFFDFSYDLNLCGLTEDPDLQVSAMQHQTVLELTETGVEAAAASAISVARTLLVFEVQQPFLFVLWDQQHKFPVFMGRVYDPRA

B1: anti-MASP-2 mAb clone #C7 (antibody, V domains shown)
VH: EVKLVESGGGLVKPGGSLKLSCAASGFTFSSYLMSWVRQTPEKRLEWVATISGGGGNTYHPDSMKGRFTISRDNAKNTLYLQMSSLRSEDTALYYCARHGDFGNYFDYWGQGTTLTVSS
VL: DIVMSQSPSSLAVSAGEKVTMSCKSSQSLLNSGTQKNYLAWYQQKPGQSPKLLIYWASTRESGVPDRFTGSGSGTDFTLTISSVQAEDLAVYYCKQSYNLFTFGAGTKLELKR
notes: From hybridomas of immunized MASP-2 KO mice; also called mAb #C7; mAb #7
B1: binds.

— patent US20220308056A1 (OMEROS, published 2022)
